{
  "source": "patent US6132750A",
  "about": "(Coletica, priority 1998, dated 2000)",
  "molecules": {"B1": {"name": "Lactoferrin (protein, UniProt P02788 20-710, looked up)", "Lactotransferrin": "GRRRSVQWCAVSQPEATKCFQWQRNMRKVRGPPVSCIKRDSPIQCIQAIAENRADAVTLDGGFIYEAGLAPYKLRPVAAEVYGTERQPRTHYYAVAVVKKGGSFQLNELQGLKSCHTGLRRTAGWNVPIGTLRPFLNWTGPPEPIEAAVARFFSASCVPGADKGQFPNLCRLCAGTGENKCAFSSQEPYFSYSGAFKCLRDGAGDVAFIRESTVFEDLSDEAERDEYELLCPDNTRKPVDKFKDCHLARVPSHAVVARSVNGKEDAIWNLLRQAQEKFGKDKSPKFQLFGSPSGQKDLLFKDSAIGFSRVPPRIDSGLYLGSGYFTAIQNLRKSEEEVAARRARVVWCAVGEQELRKCNQWSGLSEGSVTCSSASTTEDCIALVLKGEADAMSLDGGYVYTAGKCGLVPVLAENYKSQQSSDPDPNCVDRPVEGYLAVAVVRRSDTSLTWNSVKGKKSCHTAVDRTAGWNIPMGLLFNQTGSCKFDEYFSQSCAPGSDPRSNLCALCIGDEQGENKCVPNSNERYYGYTGAFRCLAENAGDVAFVKDVTVLQNTDGNNNEAWAKDLKLADFALLCLDGKRKPVTEARSCHLAMAPNHAVVSRMDKVERLKQVLLHQQAKFGRNGSDCPDKFCLFQSETKNLLFNDNTECLARLHGKTTYEKYLGPQYVAGITNLKKCSTSPLLEACEFLRK", "notes": "chelating agent conventionally used in cosmetics for trapping iron"}},
  "assay": "Inhibition of the Fe2+ induced radical degradation of hyaluronic acid (viscosity drop)",
  "procedure": "The chelating microspheres prepared according to I2 are used to evaluate their capacity, via the trapping of ferrous iron Fe2+, to inhibit the radical degradation of hyaluronic acid, glycosarinoglycan implied in the moisturisation of the human dermis, which is therefore a particularly important target to protect in cosmetic and dermo-pharmaceutical applications.\nA 10 g/l solution of hyaluronic acid of high molecular weight (>1,000,000g/mol or Daltons) is prepared in demineralised water. To this solution is added an amount of Fe2+ of 620 ppm.\nOther chelating agents which are conventionally used in cosmetics were used and compared to the chelating microspheres, for their capacity to reduce the radical degradation of hyaluronic acid. Indices of protection, expressed in % of protection, are calculated by carrying out a ratio of the drop in viscosity observed by the presence of iron Fe2+ (620 ppm) in the presence of the chelating agent studied, and the drop in viscosity observed with and without iron Fe2+.",
  "data": [
    {"molecule": "B1", "values": [
      {"measurement": "Index of protection (%)", "setting": "concentration used 133 mg/l, hyaluronic acid 10 g/l, Fe2+ 620 ppm", "result": 25, "unit": "%"},
      {"measurement": "effect on the depolymerisation (radical cleavage) of hyaluronic acid in the presence of iron", "setting": "in words", "result": "accelerated"}
    ]}
  ]
}
